Substitutions are numbered along the chain they refer to.
T1: Cynomolgus monkey CLDN18.2 (cynomolgus monkey)
T1 chain: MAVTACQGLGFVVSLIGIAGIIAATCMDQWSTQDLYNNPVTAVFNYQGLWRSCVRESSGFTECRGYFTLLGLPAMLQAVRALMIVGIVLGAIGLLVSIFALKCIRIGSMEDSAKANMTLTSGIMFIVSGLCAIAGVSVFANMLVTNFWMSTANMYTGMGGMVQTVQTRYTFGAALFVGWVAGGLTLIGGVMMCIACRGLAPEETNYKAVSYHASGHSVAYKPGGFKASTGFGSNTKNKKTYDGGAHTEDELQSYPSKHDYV

T2: Mouse CLDN18.2 (mouse, UniProt P56857 10-264)
T2 chain: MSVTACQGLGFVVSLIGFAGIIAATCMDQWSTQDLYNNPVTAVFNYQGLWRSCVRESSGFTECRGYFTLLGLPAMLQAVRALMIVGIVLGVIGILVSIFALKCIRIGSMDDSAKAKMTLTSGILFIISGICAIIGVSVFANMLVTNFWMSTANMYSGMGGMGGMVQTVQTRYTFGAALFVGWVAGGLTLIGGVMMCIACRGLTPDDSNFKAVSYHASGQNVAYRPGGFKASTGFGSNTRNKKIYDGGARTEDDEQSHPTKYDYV

B1: 7E3 (hybridoma clone, murine CLDN18.2 antigen-binding protein) (antibody, V domains shown)
VH: EVQLQQSGPELVKPGASVKMSCKASGYTFTNYIIHWVKQKPGQGLEWIGYINPYTDGPKYNEKFKGRATLTSDKSSSTAYMEFSSLTSEDSAVYYCARLNRGNAMDYWGQGTSVTVSS
VL: DIVMTQSPSSLTVTVREKVTLSCKSSQSLLNSGNQKNYLTWYQQKPGQPPKLLIYWASTRESGVPDRFTGSGSGTDFTLTISSVQAEDLAVYYCQNVYIYPFTFGAGTKLELKR
notes: Murine monoclonal antibody tested as hybridoma culture supernatant
B2: 3A6 (hybridoma clone, murine CLDN18.2 antigen-binding protein) (antibody, V domains shown)
VH: EVQLVESGGDLVQPGGSLKLSCAASGFTLSRYGMSWVRQTPDKRLEWVSTIISGGINTYYSDSVKGRFSISRDNARNTLYLQMSSLKSEDTAMYYCGRLYYGNAMDYWGQGTAVTVSS
VL: B1 VL with V15A, R16G, L21M, D76H, V97D, I99S, F102L
notes: as for B1
B3: 14E12 (hybridoma clone, murine CLDN18.2 antigen-binding protein) (antibody, V domains shown)
VH: B1 VH with Q6E
VL: DIVMTQSPSSLSVSAGEKVTMSCKSSQSLLNNGNQKNYLAWYQQKPGQPPKLLIYGASTRESGVPDRFTGSGSGTDFALTISSVQAEDLAVYYCQNDLYYPFTFGSGTKLDIKR
notes: as for B1
B4: 5E6 (hybridoma clone, murine CLDN18.2 antigen-binding protein) (antibody, V domains shown)
VH: B1 VH with I33V, I34M, H35N, T55N, P58T, K63R, R67K, Y80F, F83V, N100Y
VL: B1 VL
notes: as for B1
B5: 17B10 (hybridoma clone, murine CLDN18.2 antigen-binding protein) (antibody, V domains shown)
VH: B1 VH with Q6E
VL: B1 VL with V15A, R16G, L21M, S22N, V97D, I99S, Y100F, A106S, L112I
notes: as for B1
B6: Standard antibody (antibody, V domains shown)
VH: QVQLQESGPGLIKPSQTLSLTCTVSGGSISSGYNWHWIRQPPGKGLEWIGYIHYTGSTNYNPALRSRVTISVDTSKNQFSLKLSSVTAADTAIYYCARIYNGNSFPYWGQGTTVTVSS
VL: DIVMTQSPDSLAVSLGERATINCKSSQSLFNSGNQKNYLTWYQQKPGQPPKLLIYWASTRESGVPDRFSGSGSGTDFTLTISSLQAEDVAVYYCQNAYSFPYTFGGGTKLEIKR
notes: detected with anti-human IgG-Fc
B7: c14E12 (antibody, V domains shown)
VH: B1 VH with Q6E
VL: B3 VL
B8: c3A6 (antibody, V domains shown)
VH: B2 VH
VL: B1 VL with V15A, R16G, L21M, D76H, V97D, I99S, F102L
B9: c7E3 (antibody, V domains shown)
VH: B1 VH
VL: B1 VL
B10: c5E6 (antibody, V domains shown)
VH: B1 VH with I33V, I34M, H35N, T55N, P58T, K63R, R67K, Y80F, F83V, N100Y
VL: B1 VL
B11: c17B10 (antibody, V domains shown)
VH: B1 VH with Q6E
VL: B1 VL with V15A, R16G, L21M, S22N, V97D, I99S, Y100F, A106S, L112I

Target: T3, Human CLDN18.2 (human, UniProt P56856-2 1-261)
T3 construct: whole, on cells; also called human Claudin18.2; hCLDN18.2
Assay: FACS, hybridoma culture supernatant on 293T-human CLDN18.2 cells
Description: (§1) The cells were co-incubated at 4° C. for 1 hour and the plates were washed once with the flow cytometry buffer. A corresponding secondary antibody was added at 30 ul/well and co-incubated at 4° C. for 30 minutes and the plates were then washed with the flow cytometry buffer twice. After the cells were shaken loose, the FACS buffer was added at 25 μl/well, and FACS was then performed on the iQue Screener flow cytometer (purchased from IntelliCyt Company). The mother clones that were positive for CLDN18.2 in the primary sorting were picked for expansion culture in 24-well cell culture plates. Three days later, the cell supernatant was taken for re-sorting by FACS. […] The positive hybridoma mother clones were monocloned using a gradient dilution method. After two to three rounds of subcloning and FACS, a monoclonal hybridoma cell secreting a CLDN18.2-specific antibody was obtained.

Binder	Average fluorescence intensity
B1	48200
B2	101000
B3	16600
B4	108000
B5	30600

Target: T3, Human CLDN18.2
Assay: FACS, hybridoma culture supernatant on CHO-human CLDN18.2 cells
Description: as §1

Binder	Average fluorescence intensity
B1	84800
B2	215000
B3	27600
B4	293000
B5	52100

Target: T3, Human CLDN18.2
Assay: FACS on SP2/0-hCLDN18.2 cells (FIG. 12)
Description: After counting, the SP2/0-hCLDN18.2 cell was resuspended in a flow cytometry buffer, adjusted to the density of 1×10⁶ cells/ml, and then added into V-bottom 96-well plates at 30 μl/well. Primary antibodies with initial working concentration of 80 μg/ml were added at 30 μl/well, and then gradient diluted with the flow cytometry buffer at a four-fold ratio to form 7 gradients. A PBS negative control was set up for each antibody. After inoculation at 4° C. for one hour, the plates were washed once with the flow cytometry buffer. The secondary antibody, i.e., goat F(ab′)2 anti-human IgG-Fc (DyLight® 650) (abcam, Cat #ab98593), was added at 30 μl/well. After inoculation at 4° C. for 30 minutes, the plates were washed twice with the flow cytometry buffer and the cells were shaken dispersedly. The flow cytometry buffer was added at 25 μl/well, and then the cells were ready for FACS on the flow cytometer. In the meanwhile, after counting, the SP2/0-hCLDN18.1 cell was loaded in plates. Primary antibodies with initial working concentration of 10 μg/ml were gradient diluted at a three-fold ratio to form 5 concentration gradients in total. The secondary antibody used was goat F(ab′)2 anti-human IgG-Fc (DyLight® 650) (abcam, Cat #ab98593). Original data were entered into the software GraphPad8.0 for graphing and calculation.

Binder	binding result
B6	binds

Target: T1, Cynomolgus monkey CLDN18.2
Assay: FACS on 293T-cynomolgus monkey CLDN18.2 cells (FIG. 4)
Description: (§2) The species cross-binding activity of the above antigen-binding proteins to mouse CLDN18.2 and cynomolgus monkey CLDN18.2 were tested through FACS on the CytoFLEX flow cytometer (purchased from BECKMAN COULTER Company) using PBS containing 0.1% BSA as a buffer. […] The treated cells were then resuspended in a flow cytometry buffer to the cell density of 1×10⁶ cells/ml, and then added into V-bottom 96-well plates at 30 μl/well. Primary antibodies with initial concentration of 10 ug/ml were gradient diluted with the flow cytometry buffer at a three-fold ratio to form 6 gradients. […] After inoculation at 4° C. for one hour, the plates were washed once with the flow cytometry buffer. The secondary antibody (abcam, Cat #ab98593) was added at 30 μl/well. After incubation at 4° C. for 30 minutes, the plates were washed twice with the flow cytometry buffer and the cells were shaken dispersedly. The flow cytometry buffer was added at 30 μl/well, and then the cells were tested on the flow cytometer. Original data were entered into the software GraphPad8.0 for graphing and calculation.

Binder	binding result
B7	binds
B8	binds
B9	binds
B10	binds
B11	binds

Target: T2, Mouse CLDN18.2
Assay: FACS on 293T-mouse CLDN18.2 cells (FIG. 4)
Description: as §2

Binder	binding result
B7	binds
B8	binds
B9	binds
B10	binds
B11	binds

Reference: patent US20240182562A1 (ORICELL THERAPEUTICS, published 2024)
